{
  "source": "paper PMC5105194",
  "key": {"[1]": {"molecular_target": "retromer cargo selective complex VPS26/VPS29/VPS35 (UniProt Q96QK1)", "experiment": "ITC; TBC proteins (100∼200 μM) injected into retromer proteins (8–16 μM); 20 °C; 20 mM Tris pH 8, 200 mM NaCl, 5 mM βME; one set of sites model"}, "[2]": {"molecular_target": "AlexaFluor488-labelled Rab7-GMPPNP (aa 1–186-Cys and Cys143Ser) (UniProt P51149)", "sequence (P51149 other isoform, or with tags, fused parts or gaps C143S)": "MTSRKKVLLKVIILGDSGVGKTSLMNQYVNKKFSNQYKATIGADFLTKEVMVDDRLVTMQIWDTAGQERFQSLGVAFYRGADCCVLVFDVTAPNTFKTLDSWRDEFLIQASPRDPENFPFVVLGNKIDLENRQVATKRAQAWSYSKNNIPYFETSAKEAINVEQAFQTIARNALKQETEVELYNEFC", "experiment": "fluorescence polarisation; fluorescence anisotropy, direct binding: proteins titrated into 50 nM AlexaFluor488-labelled Rab7-GMPPNP; 20 °C; 20 mM Tris pH 8.0, 100 mM NaCl, 2 mM MgCl2, 5 mM βME; single-site 1:1 model"}, "TBC1d5^TBC/CSC complex": {"molecular_target": "TBC1d5^TBC/CSC complex (UniProt Q96QK1)", "experiment": "fluorescence polarisation; fluorescence anisotropy, competition: unlabelled Rab7-GMPPNP titrated into 8 μM TBC1d5/CSC and 50 nM labelled Rab7-GMPPNP; 20 °C; competitive binding one-site model"}},
  "data": [
    {"substance": "TBC1d5^TBC (from UniProt Q92609 1-795) (domain or fragment)", "values": [
      {"measurement": "Kd", "setting": "[1]", "result": 0.22, "unit": "µM"},
      {"measurement": "stoichiometry N", "setting": "[1]", "result": 1}
    ]},
    {"substance": "TBC1d5^TBC/CSC complex (from UniProt Q96QK1 1-796; Q9UBQ0 1-182; O75436 1-327)", "values": [
      {"measurement": "Kd", "setting": "[2]", "result": 11.5, "unit": "µM"}
    ]},
    {"substance": "unlabelled Rab7-GMPPNP (from UniProt P51149 1-86) (natural protein)", "values": [
      {"measurement": "Kd", "setting": "TBC1d5^TBC/CSC complex", "result": 36, "unit": "µM"}
    ]}
  ]
}
